# Patent US20170029907, “GENERALIZABLE ASSAY FOR VIRUS CAPSID ASSEMBLY” (Indiana University Research and Technology Corporation, published 2017)
# T1: BMV capsid protein (Brome mosaic virus, UniProt P03602 P03602:1-189)
# T1 sequence: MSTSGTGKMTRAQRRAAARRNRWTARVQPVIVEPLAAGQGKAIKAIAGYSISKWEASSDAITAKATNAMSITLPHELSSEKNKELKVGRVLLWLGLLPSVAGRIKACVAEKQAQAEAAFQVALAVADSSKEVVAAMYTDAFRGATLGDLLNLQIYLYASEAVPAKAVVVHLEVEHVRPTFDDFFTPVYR
# Key:
# [1] = molecular target: T2, RRV capsid protein (Ross River virus, UniProt P08491 P08491:1-270); assay: intermolecular FRET; 1 uM DNA; saturates at 4 proteins per oligo; conditions: chain copies: assembles into core-like particles; about 4 per oligonucleotide; label: Cy3 (D27) or Cy5 (A27)
# T2 sequence (P08491 1-270, one chain of several): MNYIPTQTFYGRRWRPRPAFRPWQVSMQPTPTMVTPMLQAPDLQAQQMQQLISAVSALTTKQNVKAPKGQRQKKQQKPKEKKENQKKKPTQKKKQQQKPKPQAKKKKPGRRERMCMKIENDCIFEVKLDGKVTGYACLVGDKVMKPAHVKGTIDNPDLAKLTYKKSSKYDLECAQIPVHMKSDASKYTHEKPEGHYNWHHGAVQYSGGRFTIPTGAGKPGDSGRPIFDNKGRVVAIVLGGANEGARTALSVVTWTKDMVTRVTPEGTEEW
# [2] = molecular target: T3, HBV capsid protein Cp183 (Hepatitis B virus, UniProt P03146 P03146:1-183); assay: intermolecular FRET and light scattering; 1 uM DNA; maximum near 3:1 then signal falls by dilution; conditions: chain copies: dimer (stated); assembles into capsids; label: Cy3 (D27) or Cy5 (A27)
# T3 sequence (P03146 whole entry, one chain of several): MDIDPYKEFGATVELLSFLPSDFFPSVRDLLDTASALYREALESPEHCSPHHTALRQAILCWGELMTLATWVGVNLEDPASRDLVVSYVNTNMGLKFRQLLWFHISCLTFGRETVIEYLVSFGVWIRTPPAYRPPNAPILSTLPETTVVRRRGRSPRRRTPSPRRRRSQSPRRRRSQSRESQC
# Method: (§1) Assembly was monitored by fluorescence. All reactions were carried out at 21° C. For the Cy3 donor and Cy5 acceptor fluorophores, fluorescence emission spectra for FRET experiments was measured from 555-710 nm. For measuring FRET in titrations, donor and acceptor excitation wavelengths were 545 and 645 nm respectively. Acceptor emission was measured at 670 nm.
# Using the optimized A:D ratio, we evaluated the sensitivity of this FRET assay for assembly. This was necessary to determine if reaction volumes and concentrations could be lowered to physiologically relevant levels. […] The minimum detectable concentration of DNA in these assays is 50 nM. Initial results shown in FIG. 1 are protein titrations of 1 μM DNA showing the assay works under more aggressive conditions. Assembly led to an increase in FRET, that was maximal at a specific protein concentration and then fell as more protein was added.
# [3] = molecular target: T1, BMV capsid protein; assay: intermolecular FRET; 1 uM DNA; saturates at about 10 proteins per oligo; conditions: chain copies: assembles into capsids; label: Cy3 (D27) or Cy5 (A27)
# [4] = molecular target: T2, RRV capsid protein; assay: light scattering, DLS and EM; 50-170 mM NaCl; ionic strength dependent pseudo-critical concentration; conditions: chain copies: assembles into core-like particles; about 4 per oligonucleotide
# [5] = molecular target: T3, HBV capsid protein Cp183; assay: FRET increase; 0.1 uM DNA; conditions: chain copies: dimer (stated); assembles into capsids; label: Cy3 and Cy5 at the two ends
# Method: as §1
# For comparison, DA was titrated with Cp183 and the results were compared to those obtained with GagΔ. FIGS. 4A and 4B show the spectra for HIV-1 GagΔ and HBV Cp183 respectively. Spectra obtained by titrating DA with GagΔ and Cp183 both show increases in FRET signal.
binder,measurement,setting,value
TACCCACGCTCTCGCAGTCATAATTCG (ssDNA) [27-mer D27/A27 1:1 mix],binding result,[1],binds
same,binding result,[2],binds
same,binding result,[3],binds
TACCCACGCTCTCGCAGTCATAATTCG (ssDNA) [unlabeled 27-mer],binding result,[4],binds
TGTGTGTGTGAAAAAAAAAAAAAAAAAAAATGTGTGTGTG (ssDNA) [DA 40-mer],binding result,[5],binds
